Key:
[1] = molecular target: SARS-CoV-2 Spike* (mutant, pre-fusion stabilised Spike protein ectodomain) (SARS-CoV-2, Wuhan-Hu-1)
[2] = molecular target: SARS-CoV-2 Spike* (mutant, pre-fusion stabilised Spike protein ectodomain) (SARS-CoV-2, Wuhan-Hu-1); assay: SPR

Substance | IC50 [1] | kd2 (slow phase of dissociation) [2] | Kd [2]
Nb6-tri (trivalent Nb6 with two 20 amino acid linkers) (VHH) | 1.5 nM | < 1e-06 s⁻¹ | 
mNb6-tri (trivalent mNb6) (VHH) | 0.4 nM |  | < 0.001 nM

Source: paper PMC7430568
